# System: MS2 coat protein
# Assay: apparent KD of MS2 coat protein; designed switch direction (-1 OFF switch, 1 ON switch): -1; higher = weaker reporter binding
# Outline: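 The buffer was Tris-HCl pH 7.5 with KCl, MgCl2, BSA, DTT, tRNA and Tween-20. In it, SNAP-549-labelled MS2 coat protein was titrated in doubling steps from 0.7 or 1.5 nM to 3 µM over chip-bound RNA switches transcribed by stalled E. coli RNA polymerase on Illumina chips. Apparent KD is the per-design median over clusters of curve fits to normalised fluorescence.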
# [1] = input ligand: microRNA oligo, concentration not stated
# [2] = Eterna round: R95, input ligand: microRNA oligo, concentration not stated
# [3] = Eterna round: R95, input ligand: FMN 200 uM
# [4] = Eterna round: R95, input ligand: none
Sequence,apparent KD of MS2 coat protein [1],apparent KD of MS2 coat protein (input ligand: FMN 200 uM),apparent KD of MS2 coat protein (input ligand: none),further results
"AGCUGUGGCCGAGGAUAUCUAUCCCAAAUAACCGAAAUAUAAUCGGACAUGAGGAUCACCCAUGUAGAGAAGGCGGUCUCAGCA [Eli eng2 - 088] (Eterna round: R96, puzzle: Exclusion NG 2)",20.4 nM,,,
"CCGCUCCGUGUAGGAUAUUGGCCUGCUCUGGGCCGAGAAGGACAUGAGGAUCACCCAUGUAUGUUAUUAUCACGCGUGGCGCAU [Design 79] (Eterna round: R96, puzzle: Exclusion NG 1)",14.5 nM,31.6 nM,21.6 nM,
GUGUAGAUAGGAUAUACGAGAGUCUAGCGAAGCUAGAUUCUACAUGAGGAUCACCCAUGUAGAAGGGUCUACAC [Fiskers Ex 2 - 30] (puzzle: Exclusion 2),,,,apparent KD of MS2 coat protein [2]: 14.2 nM
"UAAUUAAUUAAUUAAUAAUACAUGAGGAUCACCCAUGUAGAUCCUACAUACAAUUUAAGUAGCUCGUCUUAUAAUUA [Stov1/1-A1] (Eterna round: R97, puzzle: Sensor, turn-off variant 1)",,206 nM,264 nM,
"UUGUUGUAUGUAGGAUAUGCAUAUUGUUAUUAUGCAGAAGGACAUGAGGAUCACCCAUGUAUAUUAUUAUUAUAUAUUAUAUAU [Title] (Eterna round: R96, puzzle: Exclusion NG 1)",20.9 nM,,,
"AGCUGACGAGGAUAUACAUGAGGAUCACCCAUGUUGGUUCAGCGACGAUAGUCGCAAUGUAGAAGGCGUCAGCU [E3/9-A1] (Eterna round: R97, puzzle: Exclusion 3)",,77.4 nM,496 nM,
"CUGAGCAGACGGAGAUCCAACAUGAGGAUCACCCAUGUCUCAAAAGCUUUUUGCUCAUCUUAUUGUACCUUGGUGCU [JL ViennaUCT Edcesobi mod 2] (puzzle: Sensor v3, turn-off variant 1)",,,,apparent KD of MS2 coat protein [3]: 391 nM; apparent KD of MS2 coat protein [2]: 17.6 nM; apparent KD of MS2 coat protein [4]: 342 nM
"AGUACUAUGCGAGCUGACUUGCGUAGUGCAGCAGGUGGAACAUGAGGAUCACCCAUGUCCUCAUUUGCUCGUCUUAA [Mat - Sensor v3 - Turn-off var 2 - D5] (puzzle: Sensor v3, turn-off variant 2)",,,,apparent KD of MS2 coat protein [3]: 27.4 nM; apparent KD of MS2 coat protein [2]: 109 nM; apparent KD of MS2 coat protein [4]: 29.8 nM
"UUUUCCUGGCAAGGAUAUCCUGUGCGGUUCCGGCUCGUGUCUGUUACAUGAGGAUCACCCAUGUGGGAGAAGGUGCCUGUGGUU [Design 89] (Eterna round: R96, puzzle: Exclusion NG 2)",34.3 nM,272 nM,41.7 nM,
"UAGCAGCGAGGAUAUACAGACGGGUCCAGUACGUGUCUUGGACUUGAGGAUCACCCAAGUAGAAGGCGCCACAG [salish99_ex2_r4_604] (Eterna round: R97, puzzle: Exclusion 2)",,41.3 nM,40 nM,
"GCAAGAAUAGGAUAUACAACAUGCCAGCUUCUUUACAACGCACAUGAGGAUCACCCAUGUAGAAGGGUUCUCUA [Exclusion-2-#13] (Eterna round: R97, puzzle: Exclusion 2)",,209 nM,261 nM,
"GCCAUGUCAGGAUAUGCUUCAAAGCACGUACAGAGCUUGAAGUAGAAGGGACAUGAGGAUCACCCAUGUGCCUA [Eternabot (L1) Solution 80] (Eterna round: R97, puzzle: Exclusion 4)",,40.2 nM,20 nM,
"AGCAGACGAGGAUAUAGAUUUGAUAACAUGAGGAUCACCCAUGUGAUCGAUAGAUCAGAUUUAGAAGGCGUCUGCU [E5/8-A1] (Eterna round: R97, puzzle: Exclusion 5)",,412 nM,525 nM,
"AUAAUGUGAGGAUAUCAGUCGACUAGCUUCGGCUAGUCGACUGAGAAGGCACAUGAGGAUCACCCAUGUGUUUC [E4/15-A1] (Eterna round: R97, puzzle: Exclusion 4)",,41.7 nM,18.7 nM,
"GGUACUCAAAGAGUACCAAUACGAACAUGAGGAUCACCCAUGUAGGAUAUGCUACUCAAAGAGUAGCAGAAGGACGUGUACCCU [Far Half Aptamer v2] (Eterna round: R96, puzzle: Exclusion NG 3)",21.9 nM,59.9 nM,24.8 nM,
GAUUGACAUGAGGAUCACCCAUGUGAGGAUAUCGGCUGGACCGUGUUGGCUUCCGUUUCGAGAAGGCGCAUAGG [Exclusion 1 V44] (puzzle: Exclusion 1),,,,apparent KD of MS2 coat protein [2]: 23.2 nM
"GGGUGCAAGCUAAGAUCCUACAUGAGGAUCACCCAUGUGGUCCGGUGACGUGAGUCACCGGACUUAGCUCGUCUUGU [salish99_S_TOV1_R5_004] (Eterna round: R97, puzzle: Sensor, turn-off variant 1)",,91.2 nM,95.6 nM,

Sequence,apparent KD of MS2 coat protein [1],apparent KD of MS2 coat protein (input ligand: FMN 200 uM),apparent KD of MS2 coat protein (input ligand: none),further results
"GCGGACAAGAUGGCGACAUCAGAGACAUGAGGAUCACCCAUGUAGGAUAUCGAUUCGAAACGAAUCGAGAAGGGCAUAGUCCGC [JL denovo 34] (Eterna round: R96, puzzle: Exclusion NG 3)",10.3 nM,14.7 nM,16.7 nM,
"GUAGAGUCAGGAUAUACGAGAUCGAAAGAUCGGCGGUCCUUACAUGAGGAUCACCCAUGUAGAAGGGACUCUAC [Omei mod 6 to Eli's favorate candidate (ch.parushev)] (Eterna round: R97, puzzle: Exclusion 2)",,258 nM,71.3 nM,
"AAAUAGCAUGAGGAUAUUGAACUGUAUACAGUACGAGAAGGCAUGACAUGAGGAUCACCCAUGUUUUGUUGGGA [EX6 #4] (Eterna round: R97, puzzle: Exclusion 6)",,119 nM,49 nM,
"CAGUCGAUAAGAUCAAUUAAUUAACAUGAGGAUCACCCAUGUGAGGAUAUCAGCUCGUGUAGAGCUGAGAAGGCACAACGACUG [ExNG3/17-A3] (Eterna round: R96, puzzle: Exclusion NG 3)",51.7 nM,278 nM,60.2 nM,
"AAAUACAAGCAAAGAUCUUACAUGAGGAUCACCCAUGUGUUCGUCUUAUAAAGUACUAUCACGAAAGUGAUAGUACA [Sensor 3, v1 - 32] (puzzle: Sensor v3, turn-off variant 1)",,,,apparent KD of MS2 coat protein [3]: 14 nM; apparent KD of MS2 coat protein [2]: 89.7 nM; apparent KD of MS2 coat protein [4]: 15.4 nM
"CUAGCGUAUGUAGGAUAUCGGACUGUUUCAGUCUGAGAAGGACAUGAGGAUCACCCAUGUAUAGCUACGUGAGUAGCUCGCUAG [JL ENG1 3.94] (Eterna round: R96, puzzle: Exclusion NG 1)",17.2 nM,,,
"CAGUACUGAGGAUAUACAUGAGGAUCACCCAUGUGUUCCAGCUAGGAAACUAGCUAAAGUAGAAGGCAGUACUG [salish99_ex3_r3_092x] (Eterna round: R96, puzzle: Exclusion 3)",17.7 nM,,,
"AAAUAAUAGAUAAAAUAAUACAUGAGGAUCACCCAUGUGGGAUGUUGAGGGUGAUACAGGCUUUUUGCUCGUCUUAU (puzzle: Sensor v3, turn-off variant 1)",,,,apparent KD of MS2 coat protein [3]: 434 nM; apparent KD of MS2 coat protein [2]: 155 nM; apparent KD of MS2 coat protein [4]: 207 nM
"CCAUAUAACUGAGGAUAUGAUCACCACUAACAUUCAGAAGGCAGACAUGAGGAUCACCCAUGUGAUUUCUCAAUAUUAUACAUC [Prohibition 76 - Jieux - Exclusion NG 1] (Eterna round: R96, puzzle: Exclusion NG 1)",375 nM,,,
"GGCAGGCUUGAGGAUAUGCAUAGGCUAGGCCUAGCAGAAGGCAAGACAUGAGGAUCACCCAUGUGUUCCUUGUG [jl-ex6-4.35 ViennaUCT mod] (Eterna round: R97, puzzle: Exclusion 6)",,545 nM,322 nM,
"AUUUAGCAAGUUAGAUCCUACAUGAGGAUCACCCAUGUUGUUCGUCUCAUUUGAAGACAACACAAAAGUGUUGUCUU [Omei Mir OFFv1 B4] (Eterna round: R97, puzzle: Sensor, turn-off variant 1)",,112 nM,126 nM,
"UUAUUAUAUGUAGGAUAUGCAUAUUAUUAUUAUGCAGAAGGACAUGAGGAUCACCCAUGUAUGUUGUUAUUAUAUAUUAUAUAU [Title] (Eterna round: R96, puzzle: Exclusion NG 1)",20.6 nM,,,
"UUCAGUCAUCCUUAUUGUUACAUGAGGAUCACCCAUGUUUGUUUAAUUAAGUUUUGUAAGUUUGUUGUUCGUUUUAU [JR_STOV1_v2_Sub074] (Eterna round: R97, puzzle: Sensor, turn-off variant 1)",,154 nM,173 nM,
"CGGUCGUCCUCAGGAUAUACAUGAGGAUCACCCAUGUUUCUAGGAUCGGUCGUCCGGUCGGUGGUGUAGAAGGGAGGGUGGCUG [random 2, A 18%] (Eterna round: R96, puzzle: Exclusion NG 2)",37.1 nM,159 nM,43.6 nM,
"CGAACUGUCUAGGAUAUACUCCCAUGCAGUUGAGUAGAAGGAGACACAUGAGGAUCACCCAUGUGACCCGAAGU [EX6 C.12] (Eterna round: R97, puzzle: Exclusion 6)",,25.3 nM,19.7 nM,
"AGGUGUAGAGGAUAUACUGCAAAGCACAUGAGGAUCACCCAUGUCCCUCUAUGAGAUUAAGUAGAAGGCUACACCA [Omei Ex5 C4] (Eterna round: R97, puzzle: Exclusion 5)",,55.7 nM,49.9 nM,
"GACGUGUAAGGAUAUGAUGUUGCAAACAAGACCCUUAAUCAUUAGAAGGUACAUGAGGAUCACCCAUGUAGGGU [Eternabot (L2) Solution 100] (Eterna round: R97, puzzle: Exclusion 4)",,129 nM,140 nM,

# Reference: the supplement of paper PMC9170038
